Measured values published in US12571800B2, “Means and methods for treating angiogenesis-related diseases” (Heidelberg Biotech GmbH, priority 2011, dated 2026).

Experiments:
solid tumors = details: cited from earlier work
[1] = system: human umbilical vein endothelial cells (HUVECs); details: in vitro; cited from earlier work
rat aortic rings = details: in vitro; cited from earlier work
[2] = system: chicken chorioallantoic membrane; details: CAM assay; cited from earlier work
fibronectin [3] = target: T1, fibronectin (Homo sapiens, UniProt P02751); assay: Elisa, binding to fibronectin; details: proteins coated at 10 μg/ml; fibronectin as ligand at the same concentration
Experimental: Coating of proteins were done in PBS at concentration of 10 μg/ml. Fibronectin served as a ligand at the same concentration. All buffers contained 2% BSA, 0.1% Tween-20.
Three protein constructs human Fc (control), dimeric human (h)Fc-Endostatin and hFc-VEGF were employed. […] Artificial endostatin dimer was generated by introducing a single mutation in amino acid position 7 of endostatin (changing glutamine to cysteine) in the recombinant Fc-endostatin. Upon digestion of this mutant protein by enterokinase, endostatin dimer is produced, linked by a disulfide bond (Kuo et al., loc. cit.).

fibronectin [4] = target: T1, fibronectin; assay: Biacore (SPR) equilibrium binding constants to fibronectin; details: fibronectin 0.78 nM-100 nM over immobilized protein; values only in FIG. 1C
Experimental: Fibronectin samples were prepared by serial dilution into 0.01 M Hepes, pH 7.4, 0.15 M NaCl, 0.05% Surfactant containing 1 mg/ml BSA in the range 0.78 nM-100 nM and flowed over control and derivatized surfaces for three minutes at a flow-rate of 60 μl/min. Dissociation phases were monitored for 5 minutes. Zero concentration blank buffer cycles were included as negative control samples. Sensor surfaces were regenerated using a 1 minute injection of 1 M ethanolamine, pH 8.5 following each interaction analysis cycle. Non-specific binding effects to sensor surface CM4 were not observed. Calculated ka, kd and KD are shown. Different curves correspond to different concentrations of fibronectin.
1.3 Surface Plasmon Resonance (SPR) binding assays. This analysis provides for a unique method for measuring equilibrium constants between two binding partners. It is able to evaluate the kinetics of an interaction by recording the rates of complex formation (ka) and dissociation (kd) followed by employing a software which determines the values of these two parameters. Equilibrium constant (KD) is obtained by calculating the ration of kd/ka Human VEGF (R&D), endostatin, endostatin dimer and human NC-1 (hNC-1) were diluted to 50 μg/ml in 10 mM Sodium Acetate, pH 5.5 and immobilized onto series S sensor chip(s) CM4 via a standard N-ethyl-N′-(dimethyl-aminopropyl)carbodiimide/N-hydroxysuccinimide (EDC/NHS) amine coupling procedures. Control surfaces were prepared similarly without protein derivatization and utilized as a reference surface for compound binding experiments.
Binding measurements were performed using a Biacore™ (GE Healthcare, Uppsala, Sweden) instrument which employs surface plasmon resonance to detect and monitor molecular interactions.
Data analysis was carried out using Biacore T100 evaluation software v1.1.1. Data were prepared by subtraction of reference surface data and blank buffer sample data, a procedure commonly referred to as ‘double referencing’ and fitted to a 1:1 langmuir binding model.
In order to measure equilibrium binding constants for the above proteins, a Biacore system was employed. […] Fc-endostatin imposes a dimeric structure on the two molecules of endostatin at the C-terminus of Fc dimer.

HUVECs [5] = assay: Immunofluorescence, endothelial cell surface binding; type: cell-based, human
Experimental: HUVECs were incubated with Fc-endostatin and detected with Alexa 488 IgG or human NC-1 (hNC-1) trimer and detected by anti-His tag monoclonal antibody.
1.5 Immunocytochemistry. HUVECs were plated and grown on cover slips. […] The slips were incubated in the blocking buffer (2% BSA PBS) for 30 min. For hFc-endostatin or hFc groups, the slides were incubated with Alexa 488 antihuman IgG for imaging. For hNC-1 or IgG groups, the slides were incubated with mouse anti-His-tag monoclonal antibody, then probed by Alexa 488 anti-mouse IgG. Anti-fibronectin antibody (R&D) was used for secondary staining for all slides and probed by Alexa 594 anti-goat IgG and imaged by confocal-microscopy. DAPI counterstaining of nuclei is shown in blue.
2.3 Binding of oligomeric hFc-endostatin and hNC-1 to HUVECs. Immunoflourescence technique was employed to detect endothelial cell surface binding of oligomeric endostatin and NC-1.

HUVECs [6] = assay: Endothelial cell migration assay (transwell, VEGF-induced); type: cell-based, human
Experimental: HUVECs were plated into 24-well inserts of transwell plate in duplication. The lower chamber was filled with serum free medium containing 100 ng/ml […] VEGF (rhVEGF) plus different concentrations of hNC-1. After incubation for 16 h at 37° C., the cells were fixed and stained. […] Endostatin monomer, dimer and NC-1 were used for comparison (c).
1.7 Endothelial cell migration assay. HUVECs were washed by serum free EBM medium twice, re-suspended at 5×10^4 cells/well in 0.6 ml of medium, were plated into 24-well inserts (Coring, 8 μm pore size) in duplicates. The lower chamber was filled with 0.6 ml of serum free EBM medium containing 100 ng/ml […] (rh)VEGF (R&D) After incubation for 16 h at 37° C., the cells were fixed by methanol and stained with eosin and hemotoxlin. Cells on the upper side of the transwell membrane were removed by cotton swab. Cells migrating to the lower side of membrane were counted.
2.4 hNC-1 inhibits endothelial cells migration. Endothelial cell migration is an important step in new blood vessel formation and tumor angiogenesis. To evaluate the effect of hNC-1 on endothelial cell migration, rhVEGF has been used to induce HUVECs migration in a transwell assay. The migration of cells has been monitored and quantified Cells migrating across the membrane were stained with blue-purple stain (FIG. 3B(a)) and counted.

[7] = system: human melanoma cancer cells (A2058); assay: A2058 human melanoma tumors in nude mice; type: in vivo
Experimental: 4-6 tumor-bearing nude mice in each group were subcutaneously (s.c.) treated with hNC-1 (100 μg/mouse once a day), clinical-grade endostatin (100 and 500 μg/mouse once a day) or PBS. Treatment was stopped prior to the development of necrosis. Sites of injection were away from tumors. Tumor sizes and the ratio of treated/control (T/C) is shown.
1.4 Animal and tumor models. All animal procedures were carried out in compliance with Children's Hospital Boston guidelines Protocols were approved by the Institutional Animal Care and Use Committee. Eight-week-old male (24-27 g) nude/nude mice (Massachusetts General Hospital, Boston, MA) were used. Mice were acclimated, caged in groups of five in a barrier care facility, and fed animal chow and water ad libitum. Animals were euthanized by CO2 inhalation. Human melanoma cell line A2058 was used for animal studies. A suspension of 2×10^6 tumor cells in 0.1 ml of PBS was injected subcutaneously (s.c.) into the dorsa of mice at the proximal midline. Mice were weighed and tumors were monitored twice a week in two diameters with digital calipers. Tumor volumes were determined using a^2×b×0.52 (where a is the shortest and b is the longest diameter). Tumors were allowed to grow to ˜100 mm^3 and mice were randomized. Treatment was by bolus s.c. injections. After experiments were completed, tumors and organs were excised and fixed in either 4% paraformaldehyde or were snap frozen. Four to six mice were treated with each group.
2.6 hNC-1 suppresses tumor growth in vivo. In order to compare anti-tumor activities of NC-1 and endostatin, nude mice bearing human melanoma cell line A2058 were employed. Two doses of clinical grade endostatin differing by 5-fold in concentration of protein (low and high doses) were used. […] It cannot be ruled out the possibility that injected NC-1 becomes degraded upon entering the circulation.

[8] = Stability in serum or cell culture media; type: in vitro ADME; details: longer periods of time, even at 4° C.
Text: The invention also relates to a method for producing the protein oligomer or peptide oligomer or fusion protein of the invention, comprising (a) culturing a host cell comprising a nucleic acid encoding the protein oligomer or peptide oligomer or fusion protein of the invention, preferably under serum-free conditions, (b) obtaining from the host cell of step (a) the protein oligomer or peptide oligomer or fusion protein, and, optionally, (c) storing the protein oligomer or peptide oligomer or fusion protein, preferably under serum-free conditions. […] Therefore, it is advantageous to produce and keep the protein oligomer or peptide oligomer of the invention under serum-free conditions.
The earliest condition media employed for endostatin isolation was continuously kept at 4° C. for a long period of time (at least a month) prior to final purification step. Presence of fetal calf serum in the media can cause degradation of NC-1. Confirmation of this hypothesis was established by another group in the inventor's laboratory a year later, employing the same mouse tumor cell line (Wen et al., loc. cit.). […] Consequently, the earlier observation of an endostatin size protein being the only product following HPLC purification, strongly supports the inventor's hypothesis that NC-1 was completely digested to an endostatin size molecule after prolonged incubation at 4° C. […]

T1 sequence (P02751 32-2477): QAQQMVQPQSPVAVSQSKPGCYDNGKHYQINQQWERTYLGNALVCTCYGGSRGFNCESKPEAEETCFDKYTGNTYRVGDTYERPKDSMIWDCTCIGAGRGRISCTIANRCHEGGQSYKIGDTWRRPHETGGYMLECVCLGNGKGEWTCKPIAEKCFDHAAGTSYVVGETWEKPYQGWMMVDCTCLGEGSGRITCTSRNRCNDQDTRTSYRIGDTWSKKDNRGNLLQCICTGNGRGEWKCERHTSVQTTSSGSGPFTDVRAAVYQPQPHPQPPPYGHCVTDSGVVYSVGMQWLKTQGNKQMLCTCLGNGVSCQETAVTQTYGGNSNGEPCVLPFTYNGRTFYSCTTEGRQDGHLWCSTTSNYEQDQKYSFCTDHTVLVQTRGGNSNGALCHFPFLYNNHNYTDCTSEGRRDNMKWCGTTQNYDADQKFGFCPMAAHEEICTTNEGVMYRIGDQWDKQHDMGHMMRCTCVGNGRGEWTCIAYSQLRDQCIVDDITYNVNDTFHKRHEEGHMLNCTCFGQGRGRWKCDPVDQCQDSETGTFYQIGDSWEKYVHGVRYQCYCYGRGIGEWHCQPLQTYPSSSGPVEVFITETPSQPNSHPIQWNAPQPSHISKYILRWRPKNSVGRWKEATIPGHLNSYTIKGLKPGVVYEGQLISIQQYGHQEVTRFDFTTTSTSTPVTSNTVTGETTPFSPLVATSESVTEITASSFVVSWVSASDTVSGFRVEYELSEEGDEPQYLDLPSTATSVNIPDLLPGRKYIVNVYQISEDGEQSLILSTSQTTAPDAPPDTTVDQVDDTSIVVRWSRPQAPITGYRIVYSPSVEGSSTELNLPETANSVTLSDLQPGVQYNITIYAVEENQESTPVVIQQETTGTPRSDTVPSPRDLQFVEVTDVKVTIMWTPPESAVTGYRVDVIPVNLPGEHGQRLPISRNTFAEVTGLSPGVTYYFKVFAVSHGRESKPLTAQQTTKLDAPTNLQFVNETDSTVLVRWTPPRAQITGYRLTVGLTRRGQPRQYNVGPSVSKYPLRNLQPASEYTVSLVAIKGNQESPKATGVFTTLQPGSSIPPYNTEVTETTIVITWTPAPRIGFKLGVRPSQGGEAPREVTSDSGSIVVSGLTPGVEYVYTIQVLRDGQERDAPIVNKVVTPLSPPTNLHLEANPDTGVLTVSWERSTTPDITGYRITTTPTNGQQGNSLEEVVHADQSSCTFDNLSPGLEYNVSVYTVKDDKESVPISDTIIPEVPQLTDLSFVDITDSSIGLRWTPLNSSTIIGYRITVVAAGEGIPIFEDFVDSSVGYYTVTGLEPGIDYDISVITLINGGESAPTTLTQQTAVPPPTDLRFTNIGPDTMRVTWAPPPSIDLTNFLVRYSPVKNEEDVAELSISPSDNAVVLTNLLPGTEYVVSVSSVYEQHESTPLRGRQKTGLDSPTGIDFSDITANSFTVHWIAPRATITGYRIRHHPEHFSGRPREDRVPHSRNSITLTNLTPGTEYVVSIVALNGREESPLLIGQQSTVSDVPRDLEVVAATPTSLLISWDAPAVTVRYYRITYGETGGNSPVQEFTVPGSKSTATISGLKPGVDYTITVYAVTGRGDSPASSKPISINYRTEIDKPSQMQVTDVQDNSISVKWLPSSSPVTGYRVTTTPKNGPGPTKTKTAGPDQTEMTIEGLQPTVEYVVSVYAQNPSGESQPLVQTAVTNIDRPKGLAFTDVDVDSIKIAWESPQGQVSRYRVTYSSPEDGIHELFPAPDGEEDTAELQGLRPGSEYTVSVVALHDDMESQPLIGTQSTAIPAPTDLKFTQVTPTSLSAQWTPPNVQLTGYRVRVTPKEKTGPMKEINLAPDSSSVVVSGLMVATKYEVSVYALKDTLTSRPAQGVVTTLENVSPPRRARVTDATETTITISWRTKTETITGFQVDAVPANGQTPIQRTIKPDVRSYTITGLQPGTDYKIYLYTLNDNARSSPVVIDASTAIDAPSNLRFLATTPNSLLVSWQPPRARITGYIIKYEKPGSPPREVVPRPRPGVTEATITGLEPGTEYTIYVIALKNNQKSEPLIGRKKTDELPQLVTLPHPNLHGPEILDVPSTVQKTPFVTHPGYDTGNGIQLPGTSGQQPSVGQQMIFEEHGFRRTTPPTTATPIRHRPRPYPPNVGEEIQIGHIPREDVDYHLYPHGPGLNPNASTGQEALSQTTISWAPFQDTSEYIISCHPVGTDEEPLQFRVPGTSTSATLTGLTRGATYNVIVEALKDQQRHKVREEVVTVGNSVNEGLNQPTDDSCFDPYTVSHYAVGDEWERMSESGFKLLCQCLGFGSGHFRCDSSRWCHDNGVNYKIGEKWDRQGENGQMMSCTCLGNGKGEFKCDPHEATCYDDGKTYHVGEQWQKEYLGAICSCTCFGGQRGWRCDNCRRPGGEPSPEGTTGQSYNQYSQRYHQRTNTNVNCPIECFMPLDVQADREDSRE

B1: Endostar: recombinant human endostatin from Escherichia coli with an additional nine-amino acid sequence forming a his-tag (protein, UniProt P39060 1572-1754, looked up)
Endostatin: HSHRDFQPVLHLVALNSPLSGGMRGIRGADFQCFQQARAVGLAGTFRAFLSSRLQDLYSIVRRADRAAVPIVNLKDELLFPSWEALFSGSEGPLKPGARIFSFDGKDVLRHPTWPQKSVWHGSDPNGRRLTESYCETWRTEAPSATGQASSLLGGRLLGQSAASCHHAYIVLCIENSFMTASK
modifications: Endostatin nine-residue his-tag
- Median time to tumor progression (solid tumors; 7.5 mg/m^2/day i.v. more than 7 days, with chemotherapy): 3.0 months
- toxicity combined with chemotherapy (solid tumors; human, in vivo): tolerable
- treatment related death (solid tumors; human, in vivo): No treatment related death
- patients remaining stable (solid tumors; of 42 patients): twenty-one
- patients with progressive disease (solid tumors; of 42 patients): nineteen
- Median overall survival (solid tumors; with chemotherapy): 30.0 months
- complete response (solid tumors; with chemotherapy): No complete response
- one year survival rate (solid tumors; with chemotherapy): 81.0%
- patients with partial response (solid tumors; with chemotherapy): Two of 42
- VEGF-stimulated proliferation, migration, and tube formation of HUVECs [1]: suppressed
- microvessel sprouting from rat aortic rings (rat aortic rings): blocked microvessel sprouting
- formation of new capillaries from pre-existing vessels [2]: inhibit the formation of new capillaries

B2: hNC-1: naturally occurring trimeric NC-1 domain of human collagen 18: association domain, hinge region and endostatin domain (protein)
chain: SGVRLWATRQAMLGQVHEVPEGWLIFVAEQEELYVRVQNGFRKVQLEARTPLPRGTDNEVAALQPPVVQLHDSNPYPRREHPHPTARPWRADDILASPPRLPEPQPYPGAPHHSSYVHLRPARPTSPPAHSHRDFQPVLHLVALNSPLSGGMRGIRGADFQCFQQARAVGLAGTFRAFLSSRLQDLYSIVRRADRAAVPIVNLKDELLFPSWEALFSGSEGPLKPGARIFSFDGKDVLRHPTWPQKSVWHGSDPNGRRLTESYCETWRTEAPSATGQASSLLGGRLLGQSAASCHHAYIVLCIENSFMTASK
modifications: left off: small tags and cut ends
notes: naturally occurring trimeric NC-1 domain of human collagen 18: association domain, hinge region and endostatin domain
- binding to fibronectin (Elisa) (fibronectin [3]): bound fibronectin
- equilibrium binding constant to fibronectin (Biacore) (fibronectin [4]): High affinity constants
- binding to HUVECs (HUVECs [5]; cells cultured only for 24 hours): poor binding
- binding to HUVECs (HUVECs [5]; incubation time prolonged to 72 hours): significant binding
- anti-migratory potency among endostatin monomer, dimer and NC-1 (HUVECs [6]): most potent anti-migratory agent
- VEGF-induced endothelial cell migration (HUVECs [6]; 100 ng/ml rhVEGF, 16 h): inhibited VEGF-induced endothelial cell migration
- endothelial cell migration (HUVECs [6]; 100 and 200 ng/ml of hNC-1): less migration
- dose effect on endothelial cell migration (HUVECs [6]; different concentrations of hNC-1): U-shaped curve
- inhibition of tumor growth ([7]; end of experiment, s.c. once a day, hNC-1 100 μg/mouse, endostatin 100 and 500 μg/mouse): 67%
- anti-tumor activity compared with endostatin ([7]; low dose of NC-1 vs 5-fold higher dose of endostatin): anti-tumor activity similar to high dose of endostatin
- stability in serum or cell culture media [8]: susceptible to degradation
